# According to paper PMC10786891, “Massively parallel profiling of RNA-targeting CRISPR-Cas13d”:
# Residue numbers refer to the chain shown, from its start. Names may count otherwise.
# T1: EsCas13d, nuclease-dead (Eubacterium siraeum, UniProt B0MS50, R295A;H300A;R849A;H854A)
# T1 sequence: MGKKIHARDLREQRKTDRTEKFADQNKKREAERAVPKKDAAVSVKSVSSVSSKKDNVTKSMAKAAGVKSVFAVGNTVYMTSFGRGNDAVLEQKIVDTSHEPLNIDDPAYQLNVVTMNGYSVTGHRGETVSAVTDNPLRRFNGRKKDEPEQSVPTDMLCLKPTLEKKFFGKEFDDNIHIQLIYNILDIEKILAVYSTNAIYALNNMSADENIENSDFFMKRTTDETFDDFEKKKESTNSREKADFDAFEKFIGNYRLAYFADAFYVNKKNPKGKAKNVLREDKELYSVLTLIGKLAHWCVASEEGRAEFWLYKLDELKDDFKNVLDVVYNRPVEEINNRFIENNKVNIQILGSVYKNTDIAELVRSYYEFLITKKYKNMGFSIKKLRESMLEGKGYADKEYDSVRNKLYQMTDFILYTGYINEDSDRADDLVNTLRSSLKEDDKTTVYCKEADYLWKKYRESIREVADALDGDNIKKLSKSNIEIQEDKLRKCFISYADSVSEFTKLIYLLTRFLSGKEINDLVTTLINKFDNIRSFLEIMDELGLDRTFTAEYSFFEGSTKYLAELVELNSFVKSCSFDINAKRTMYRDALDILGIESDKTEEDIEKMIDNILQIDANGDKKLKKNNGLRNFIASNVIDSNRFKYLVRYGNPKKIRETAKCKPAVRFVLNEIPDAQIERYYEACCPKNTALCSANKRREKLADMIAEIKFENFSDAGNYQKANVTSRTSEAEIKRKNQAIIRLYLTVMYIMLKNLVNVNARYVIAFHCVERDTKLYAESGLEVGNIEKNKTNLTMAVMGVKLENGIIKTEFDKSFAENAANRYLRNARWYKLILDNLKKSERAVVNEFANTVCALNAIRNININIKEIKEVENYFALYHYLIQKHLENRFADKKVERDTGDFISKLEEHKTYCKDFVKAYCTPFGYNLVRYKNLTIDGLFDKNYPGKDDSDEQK
# B1: target 2 MT 5'PFS UCU 3'PFS AUA (mixed)
# RNA 1: CACCCGUGCAAAAUUGCAGGGGUCUAAAACCUUCUCCAAAUUGUUUCAUCCU
# RNA 2: GGGAAUGGAUCCACAUCUACGAAUUCUCUAGGAUGAAACAAUUUGGAGAAGAUAAGAUCGGAAGAGCACACGU
# B2: target 2 MT 5'PFS GGA 3'PFS UUA (mixed)
# RNA 1: B1 RNA 1
# RNA 2: B1 RNA 2 with U27G, C28G, U29A, A52U
# B3: target 2 MT 5'PFS AGG 3'PFS CUG (mixed)
# RNA 1: B1 RNA 1
# RNA 2: B1 RNA 2 with U27A, C28G, U29G, A52C, A54G
# B4: target 2 MT 5'PFS GAC 3'PFS AUC (mixed)
# RNA 1: B1 RNA 1
# RNA 2: B1 RNA 2 with U27G, C28A, U29C, A54C
# B5: target 2 MT 5'PFS GUC 3'PFS AGG (mixed)
# RNA 1: B1 RNA 1
# RNA 2: B1 RNA 2 with U27G, C28U, U29C, U53G, A54G
# B6: target 2 MT 5'PFS GCA 3'PFS CGC (mixed)
# RNA 1: B1 RNA 1
# RNA 2: B1 RNA 2 with U27G, U29A, A52C, U53G, A54C
# B7: target 2 MT 5'PFS UGG 3'PFS AUG (mixed)
# RNA 1: B1 RNA 1
# RNA 2: B1 RNA 2 with C28G, U29G, A54G
# B8: target 2 MT 5'PFS CUC 3'PFS AUC (mixed)
# RNA 1: B1 RNA 1
# RNA 2: B1 RNA 2 with U27C, C28U, U29C, A54C
# B9: target 2 MT 5'PFS AUU 3'PFS AUG (mixed)
# RNA 1: B1 RNA 1
# RNA 2: B1 RNA 2 with U27A, C28U, A54G
# B10: target 2 MT 5'PFS GAU 3'PFS AAU (mixed)
# RNA 1: B1 RNA 1
# RNA 2: B1 RNA 2 with U27G, C28A, U53A, A54U
# B11: target 2 MT 5'PFS UGC 3'PFS AAA (mixed)
# RNA 1: B1 RNA 1
# RNA 2: B1 RNA 2 with C28G, U29C, U53A
# B12: target 2 MT 5'PFS GAU 3'PFS AAA (mixed)
# RNA 1: B1 RNA 1
# RNA 2: B1 RNA 2 with U27G, C28A, U53A
# B13: target 2 MT 5'PFS UGC 3'PFS UCG (mixed)
# RNA 1: B1 RNA 1
# RNA 2: B1 RNA 2 with C28G, U29C, A52U, U53C, A54G
# B14: target 2 MT 5'PFS GGA 3'PFS UUC (mixed)
# RNA 1: B1 RNA 1
# RNA 2: B1 RNA 2 with U27G, C28G, U29A, A52U, A54C
# B15: target 2 MT 5'PFS GUC 3'PFS AGC (mixed)
# RNA 1: B1 RNA 1
# RNA 2: B1 RNA 2 with U27G, C28U, U29C, U53G, A54C
# B16: target 2 MT 5'PFS UGC 3'PFS UCA (mixed)
# RNA 1: B1 RNA 1
# RNA 2: B1 RNA 2 with C28G, U29C, A52U, U53C
# B17: target 2 MT 5'PFS UGC 3'PFS AAC (mixed)
# RNA 1: B1 RNA 1
# RNA 2: B1 RNA 2 with C28G, U29C, U53A, A54C
# B18: target 2 MT 5'PFS GGU 3'PFS UAU (mixed)
# RNA 1: B1 RNA 1
# RNA 2: B1 RNA 2 with U27G, C28G, A52U, U53A, A54U
# B19: target 2 MT 5'PFS CUG 3'PFS UAU (mixed)
# RNA 1: B1 RNA 1
# RNA 2: B1 RNA 2 with U27C, C28U, U29G, A52U, U53A, A54U
# B20: target 2 MT 5'PFS GGA 3'PFS UUU (mixed)
# RNA 1: B1 RNA 1
# RNA 2: B1 RNA 2 with U27G, C28G, U29A, A52U, A54U
# B21: target 2 MT 5'PFS CUC 3'PFS AUG (mixed)
# RNA 1: B1 RNA 1
# RNA 2: B1 RNA 2 with U27C, C28U, U29C, A54G
# B22: target 2 MT 5'PFS GGA 3'PFS UUG (mixed)
# RNA 1: B1 RNA 1
# RNA 2: B1 RNA 2 with U27G, C28G, U29A, A52U, A54G
# B23: target 2 MT 5'PFS CUC 3'PFS AUU (mixed)
# RNA 1: B1 RNA 1
# RNA 2: B1 RNA 2 with U27C, C28U, U29C, A54U
# B24: target 2 MT 5'PFS UGA 3'PFS CUC (mixed)
# RNA 1: B1 RNA 1
# RNA 2: B1 RNA 2 with C28G, U29A, A52C, A54C
# B25: target 2 MT 5'PFS GAU 3'PFS AAC (mixed)
# RNA 1: B1 RNA 1
# RNA 2: B1 RNA 2 with U27G, C28A, U53A, A54C
# B26: target 2 MT 5'PFS CCU 3'PFS UAG (mixed)
# RNA 1: B1 RNA 1
# RNA 2: B1 RNA 2 with U27C, A52U, U53A, A54G
# B27: target 2 MT 5'PFS GAC 3'PFS AUU (mixed)
# RNA 1: B1 RNA 1
# RNA 2: B1 RNA 2 with U27G, C28A, U29C, A54U
# B28: target 2 MT 5'PFS UGC 3'PFS AAG (mixed)
# RNA 1: B1 RNA 1
# RNA 2: B1 RNA 2 with C28G, U29C, U53A, A54G
# B29: target 2 MT 5'PFS GAU 3'PFS AAG (mixed)
# RNA 1: B1 RNA 1
# RNA 2: B1 RNA 2 with U27G, C28A, U53A, A54G
# B30: target 2 MT 5'PFS GAC 3'PFS AUG (mixed)
# RNA 1: B1 RNA 1
# RNA 2: B1 RNA 2 with U27G, C28A, U29C, A54G
# B31: target 2 MT 5'PFS CUC 3'PFS AUA (mixed)
# RNA 1: B1 RNA 1
# RNA 2: B1 RNA 2 with U27C, C28U, U29C
# B32: target 2 MT 5'PFS GUC 3'PFS AGA (mixed)
# RNA 1: B1 RNA 1
# RNA 2: B1 RNA 2 with U27G, C28U, U29C, U53G
# B33: target 2 MT 5'PFS UAU 3'PFS AAU (mixed)
# RNA 1: B1 RNA 1
# RNA 2: B1 RNA 2 with C28A, U53A, A54U
# B34: target 2 MT 5'PFS UGG 3'PFS AUC (mixed)
# RNA 1: B1 RNA 1
# RNA 2: B1 RNA 2 with C28G, U29G, A54C
# B35: target 2 MT 5'PFS GCA 3'PFS CGA (mixed)
# RNA 1: B1 RNA 1
# RNA 2: B1 RNA 2 with U27G, U29A, A52C, U53G
# B36: target 1 insU 3' of 14,insA 3' of 4 (mixed)
# RNA 1: CACCCGUGCAAAAAUGCAGGGGUCUAAAACUGAGCGGAUAACCUCUCUAUGG
# RNA 2: GGGAAUGGAUCCACAUCUACGAAUUCGUACCAUAGAGAUGGUUAUCCGCAUCACCGAGAUCGGAAGAGCACACGU
# B37: target 1 C7U,A18G (mixed)
# RNA 1: B36 RNA 1
# RNA 2: GGGAAUGGAUCCACAUCUACGAAUUCGUACCAUGGAGAGGUUAUUCGCUCACCGAGAUCGGAAGAGCACACGU
# B38: target 1 insA 3' of 7,insU 3' of 4 (mixed)
# RNA 1: B36 RNA 1
# RNA 2: B36 RNA 2 with U39G, G41U, U43A, A44U, U45C, C46A, A50U
# Biological target: T1, EsCas13d, nuclease-dead
# Test: crRNA (strand 1, pre-loaded); Mg2+; 40 mM Tris-HCl pH 7.5, 150 mM NaCl, 6 mM MgCl2, 1 mM DTT, 0.1% Tween-20, 0.2 mg/ml BSA; 25 C; 10 min per concentration, then washed
# Details: tags: His6-TwinStrep-SUMO cleaved; N-terminal SNAP kept (SNAP-Surface 488); label: 3' end held by stalled T7 RNA polymerase
row,Binder,Kd [nM]
1,B1,9.3 ± 1.1
2,B2,18.1 ± 3.5
3,B3,7.4 ± 0.9
4,B4,13.5 ± 2.6
5,B5,15.3 ± 2.1
6,B6,13.1 ± 1.9
7,B7,5.2 ± 0.5
8,B8,1.91 ± 0.31
9,B9,7.5 ± 0.8
10,B10,9.1 ± 1.6
11,B11,14 ± 5
12,B12,6.9 ± 1
13,B13,60 ± 24
14,B14,28 ± 6
15,B15,13.2 ± 2.3
16,B16,10.4 ± 1.8
17,B17,13 ± 4
18,B18,17.6 ± 3.3
19,B19,5.3 ± 1.2

row,Binder,Kd [nM]
1,B20,41 ± 9
2,B21,1.74 ± 0.26
3,B22,18.3 ± 2.7
4,B23,2.2 ± 0.4
5,B24,47 ± 20
6,B25,16 ± 5
7,B26,1.16 ± 0.21
8,B27,12.1 ± 2.1
9,B28,15 ± 3.3
10,B29,11.8 ± 1.6
11,B30,22 ± 5
12,B31,2.11 ± 0.28
13,B32,16.8 ± 2.8
14,B33,16.2 ± 1.5
15,B34,5.5 ± 0.6
16,B35,8.4 ± 1.1
17,B36,26 ± 4
18,B37,~70
19,B38,6.3 ± 0.5
